One series addresses Bacillus subtilis UvrA (Bacillus subtilis, UniProt O34863 1-957). Briefly: native gel or EMSA. For orientation: In EMSA bound probe runs differently from free probe, usually more slowly.
The series “crystal structure” concerns the molecule itself. Briefly: crystal structure.
The series “DEER” concerns the molecule itself. Briefly: DEER.
The series “cross-linking” deals with the molecule itself. Briefly: cross-linking.
In another series the target is T1, UvrB wild type (Bacillus subtilis, UniProt P37954 1-661).
T1 sequence: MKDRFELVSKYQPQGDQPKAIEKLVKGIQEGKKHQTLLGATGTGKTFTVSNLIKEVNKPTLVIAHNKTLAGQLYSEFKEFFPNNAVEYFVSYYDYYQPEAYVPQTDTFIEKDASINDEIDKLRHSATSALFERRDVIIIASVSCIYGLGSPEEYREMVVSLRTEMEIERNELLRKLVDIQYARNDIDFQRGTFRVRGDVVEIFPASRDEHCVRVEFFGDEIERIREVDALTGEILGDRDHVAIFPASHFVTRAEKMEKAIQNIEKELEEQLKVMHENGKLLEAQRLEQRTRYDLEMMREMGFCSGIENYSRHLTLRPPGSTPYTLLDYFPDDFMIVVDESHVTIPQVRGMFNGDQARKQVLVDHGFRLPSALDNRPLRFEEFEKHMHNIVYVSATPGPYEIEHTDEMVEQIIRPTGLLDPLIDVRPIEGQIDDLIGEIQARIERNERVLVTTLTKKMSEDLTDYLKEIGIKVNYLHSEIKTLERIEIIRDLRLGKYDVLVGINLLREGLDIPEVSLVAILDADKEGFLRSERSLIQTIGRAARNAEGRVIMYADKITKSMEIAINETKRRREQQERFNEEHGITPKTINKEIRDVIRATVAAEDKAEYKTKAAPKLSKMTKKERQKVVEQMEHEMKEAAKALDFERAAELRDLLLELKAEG
Briefly: X-ray crystallography.

Sequence of Bacillus subtilis UvrA (O34863 whole entry): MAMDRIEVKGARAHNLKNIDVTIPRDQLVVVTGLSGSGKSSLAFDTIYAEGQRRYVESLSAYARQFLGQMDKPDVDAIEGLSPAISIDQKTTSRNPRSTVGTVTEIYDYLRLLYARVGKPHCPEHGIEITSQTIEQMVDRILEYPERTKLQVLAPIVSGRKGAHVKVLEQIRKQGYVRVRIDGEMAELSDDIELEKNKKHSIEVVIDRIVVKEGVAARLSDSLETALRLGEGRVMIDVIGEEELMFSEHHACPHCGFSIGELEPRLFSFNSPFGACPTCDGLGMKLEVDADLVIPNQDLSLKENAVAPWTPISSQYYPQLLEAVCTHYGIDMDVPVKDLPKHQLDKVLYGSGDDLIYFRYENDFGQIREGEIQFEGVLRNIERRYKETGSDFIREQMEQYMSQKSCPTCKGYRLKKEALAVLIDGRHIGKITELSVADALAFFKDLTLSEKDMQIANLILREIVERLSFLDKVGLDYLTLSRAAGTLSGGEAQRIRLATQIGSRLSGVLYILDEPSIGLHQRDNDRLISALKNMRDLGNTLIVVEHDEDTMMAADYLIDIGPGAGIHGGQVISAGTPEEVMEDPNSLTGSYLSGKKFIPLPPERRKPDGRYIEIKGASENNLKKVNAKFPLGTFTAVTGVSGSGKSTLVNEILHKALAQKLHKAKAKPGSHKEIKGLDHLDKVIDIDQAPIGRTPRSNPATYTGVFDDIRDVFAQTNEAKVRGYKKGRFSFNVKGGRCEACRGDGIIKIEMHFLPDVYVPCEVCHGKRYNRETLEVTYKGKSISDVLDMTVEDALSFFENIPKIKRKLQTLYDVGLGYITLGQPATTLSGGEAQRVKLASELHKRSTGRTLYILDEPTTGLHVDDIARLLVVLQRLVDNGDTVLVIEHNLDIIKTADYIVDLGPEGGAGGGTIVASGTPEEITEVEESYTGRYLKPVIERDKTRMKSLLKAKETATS

B1: Bacillus subtilis UvrB (wild type) (natural protein)
chain: MKDRFELVSKYQPQGDQPKAIEKLVKGIQEGKKHQTLLGATGTGKTFTVSNLIKEVNKPTLVIAHNKTLAGQLYSEFKEFFPNNAVEYFVSYYDYYQPEAYVPQTDTFIEKDASINDEIDKLRHSATSALFERRDVIIIASVSCIYGLGSPEEYREMVVSLRTEMEIERNELLRKLVDIQYARNDIDFQRGTFRVRGDVVEIFPASRDEHCVRVEFFGDEIERIREVDALTGEILGDRDHVAIFPASHFVTRAEKMEKAIQNIEKELEEQLKVMHENGKLLEAQRLEQRTRYDLEMMREMGFCSGIENYSRHLTLRPPGSTPYTLLDYFPDDFMIVVDESHVTIPQVRGMFNGDQARKQVLVDHGFRLPSALDNRPLRFEEFEKHMHNIVYVSATPGPYEIEHTDEMVEQIIRPTGLLDPLIDVRPIEGQIDDLIGEIQARIERNERVLVTTLTKKMSEDLTDYLKEIGIKVNYLHSEIKTLERIEIIRDLRLGKYDVLVGINLLREGLDIPEVSLVAILDADKEGFLRSERSLIQTIGRAARNAEGRVIMYADKITKSMEIAINETKRRREQQERFNEEHGITPKTINKEIRDVIRATVAAEDKAEYKTKAAPKLSKMTKKERQKVVEQMEHEMKEAAKALDFERAAELRDLLLELKAEG
Take B1: the binding result with Bacillus subtilis UvrA is on record as “binds”. For the same molecule, in the series “crystal structure”, the “stoichiometry N” value is 2.

B2: Bacillus subtilis UvrB T481C mutant, spin labeled with PROXYL (natural protein)
chain: MKDRFELVSKYQPQGDQPKAIEKLVKGIQEGKKHQTLLGATGTGKTFTVSNLIKEVNKPTLVIAHNKTLAGQLYSEFKEFFPNNAVEYFVSYYDYYQPEAYVPQTDTFIEKDASINDEIDKLRHSATSALFERRDVIIIASVSCIYGLGSPEEYREMVVSLRTEMEIERNELLRKLVDIQYARNDIDFQRGTFRVRGDVVEIFPASRDEHCVRVEFFGDEIERIREVDALTGEILGDRDHVAIFPASHFVTRAEKMEKAIQNIEKELEEQLKVMHENGKLLEAQRLEQRTRYDLEMMREMGFCSGIENYSRHLTLRPPGSTPYTLLDYFPDDFMIVVDESHVTIPQVRGMFNGDQARKQVLVDHGFRLPSALDNRPLRFEEFEKHMHNIVYVSATPGPYEIEHTDEMVEQIIRPTGLLDPLIDVRPIEGQIDDLIGEIQARIERNERVLVTTLTKKMSEDLTDYLKEIGIKVNYLHSEIKCLERIEIIRDLRLGKYDVLVGINLLREGLDIPEVSLVAILDADKEGFLRSERSLIQTIGRAARNAEGRVIMYADKITKSMEIAINETKRRREQQERFNEEHGITPKTINKEIRDVIRATVAAEDKAEYKTKAAPKLSKMTKKERQKVVEQMEHEMKEAAKALDFERAAELRDLLLELKAEG
modifications: nitroxide spin label 3-(2-iodoacetamido)-proxyl (PROXYL) on C481
For B2, the binding result in “DEER” is listed as “binds”.

B3: Bacillus subtilis UvrB T481C mutant (natural protein)
chain: MKDRFELVSKYQPQGDQPKAIEKLVKGIQEGKKHQTLLGATGTGKTFTVSNLIKEVNKPTLVIAHNKTLAGQLYSEFKEFFPNNAVEYFVSYYDYYQPEAYVPQTDTFIEKDASINDEIDKLRHSATSALFERRDVIIIASVSCIYGLGSPEEYREMVVSLRTEMEIERNELLRKLVDIQYARNDIDFQRGTFRVRGDVVEIFPASRDEHCVRVEFFGDEIERIREVDALTGEILGDRDHVAIFPASHFVTRAEKMEKAIQNIEKELEEQLKVMHENGKLLEAQRLEQRTRYDLEMMREMGFCSGIENYSRHLTLRPPGSTPYTLLDYFPDDFMIVVDESHVTIPQVRGMFNGDQARKQVLVDHGFRLPSALDNRPLRFEEFEKHMHNIVYVSATPGPYEIEHTDEMVEQIIRPTGLLDPLIDVRPIEGQIDDLIGEIQARIERNERVLVTTLTKKMSEDLTDYLKEIGIKVNYLHSEIKCLERIEIIRDLRLGKYDVLVGINLLREGLDIPEVSLVAILDADKEGFLRSERSLIQTIGRAARNAEGRVIMYADKITKSMEIAINETKRRREQQERFNEEHGITPKTINKEIRDVIRATVAAEDKAEYKTKAAPKLSKMTKKERQKVVEQMEHEMKEAAKALDFERAAELRDLLLELKAEG
For B3, the binding result in the series “cross-linking” was “binds”.

Turning to TACTGTTT (ssDNA, T-fluorescein at position 6) [TACTG(TF6)TT 8-mer], the binding result with UvrB wild type was “binds”.

In general, stoichiometry N refers to the number of molecules, sites or subunits per partner or assembly.
